Data on one molecule can be found in US20130171217A1, “ENZYMATIC PERACID GENERATION FOR USE IN SKIN CARE PRODUCTS” (E I DU PONT DE NEMOURS AND COMPANY, priority 2010, published 2013).

Data set [1] is described as follows: Impact of additives on perhydrolase activity, PAA indicator strip. It counts as biochemical. To be noted: glycerin, ethanol, sorbitol, polyethylene glycol or propylene glycol additive. How it is done:
A peracetic acid indicator strip with detection range from 75 to 400 ppm was used to study the impact of additives on the perhydrolase activity of a perhydrolase. When the PAA concentration is at least 0.2 wt %, the dark color generated on the indicator strip will turn back to original white color over time.
A first solution (“solution A”) was prepared using 50 mM phosphate buffer (pH 8) and 10 wt % of one of the following additives: glycerin, ethanol, sorbitol, polyethylene glycol, propylene glycol in, respectively.
A second solution (“solution B”) was prepared by mixing 30% H2O2 and 50 mM phosphate buffer (pH 8) whereby the final concentration of H2O2 was 500 mM.
A third solution (“solution C”) was prepared comprising of CPAH-HC1010 (SEQ ID NO: 295) (0.2 mg/mL), triacetin (200 mM), 50 mM phosphate buffer (pH 8), and solution A (5 wt % additive). Immediately, added solution B in a 1:1 volume ratio. After 1 to 5 min, a 30-μL sample of the resulting solution was removed and immediately placed on a PAA indicator strip.
This process was repeated for each of the additives listed above.

Data set [2] in a line: Single fiber tensile strength and bleaching start after two-step enzymatic application. Conditions: two-step with buffer rinse. On the procedure: Hair samples were cut into pieces 4-inches in length. The denier number (liner mass density) of each hair fiber was measured by Textechno Vibromat Instrument (Textechno Herbert Stein GmbH & Co. KG; Germany). The hair fibers were tested according to ASTM D 3822-01 (“Tensile Properties of Single Textile Fibers”; ASTM International, West Conshohocken, Pa., 2001), on an Instron testing system (Instron Model 1122 Tester; Instron, Mass.) at about 70° F. (approximately 21° C.) and 65% relative humidity. The treated area of the hair sample was placed in the middle of the gauge and both ends were gripped on the test heads. Both fiber ends were attached on a piece of tape, respectively, for easy handling and gripping on the test heads. The test used 2-inch (5.1 cm) gauge length, […], and 1.2 inch/min (3 cm/min) pulling rate. The force-strain curve of the fiber was recorded during the test. The tenacity at maximum (gf/den) was calculated by dividing maximum force (gf) by denier number (den). Note that (gf/den)/11.33=Newtons/tex (N/tex).
In a two-step application, the hair strands are first treated with perhydrolase solutions to allow the enzyme to bind hair. The hair strands are then dried or rinsed with buffer and dried. The rinse step is intended to remove excess unbound enzyme from the hair. The hair strands are soaked in triacetin and H2O2 solutions. The application is repeated for multiple times.
One experiment was carried out with C277S-HC263 and untargeted T. maritima variant C277S using the following protocol: • 1. Enzyme solutions comprising 0.5 mg/mL enzyme in 50 mM phosphate buffer (pH 8) were made with or without 10 wt % urea. • 2. Seven (7) hair strands were soaked in 0.2 mL of an enzyme solution for 10 min and then dried under N2 without prior rinsing. • 3. The hair strands were then soaked in 0.2 mL of a pH 8 solution containing 100-mM triacetin and 250-mM H2O2 for 15 min, dried, then rinsed with DI water and then dried again. • 4. Steps 2-3 were repeated up to 15 times.
Another experiment was carried out with C277S-HC263 (SEQ ID NO: 288), CPAH-HC263 (SEQ ID NO: 294), CPAH-HC1010 (SEQ ID NO: 295) and untargeted C277S using the following protocol: • 1. Enzyme solutions comprising 1.0 mg/mL enzyme in 50 mM phosphate buffer (pH 6) were prepared. For solutions containing two enzymes, the concentration of each enzyme was approximately 0.5 mg/mL. • 2. Seven (7) hair strands were soaked in 0.2 mL of an enzyme solution for 10 min, rinsed with 50 mM phosphate buffer (pH 6), and then dried under N2. • 3. The dried hair strands were then soaked into 0.2 mL of 50 mM phosphate buffer solution (pH 8) comprising 100 mM triacetin and 250 mM H2O2 for 15 min, dried, then rinsed with DI water and then dried again. • 4.

Some results are limits rather than exact numbers.

B1: CPAH-HC1010: fusion peptide C277S-HC1010 further comprising a D128G substitution (protein)
chain: MAFFDLPLEELKKYRPERYEEKDFDEFWEETLAESEKFPLDPVFERMESHLKTVEAYDVTFSGYRGQRIKGWLLVPKLEEEKLPCVVQYIGYNGGRGFPHDWLFWPSMGYICFVMDTRGQGSGWLKGGTPDYPEGPVDPQYPGFMTRGILDPRTYYYRRVFTDAVRAVEAAASFPQVDQERIVIAGGSQGGGIALAVSALSKKAKALLCDVPFLCHFRRAVQLVDTHPYAEITNFLKTHRDKEEIVFRTLSYFDGVNFAARAKIPALFSVGLMDNISPPSTVFAAYNYYAGPKEIRIYPYNNHEGGGSFQAVEQVKFLKKLFEKGGPGSGGAGSPGSAGGPGSAQSQLPDKHSGLHERAPQRYGSGTAEIQSSKNPNPHPQRSWTNGSGHNHMQERYTDPQHSPSVNGLGSGHDHKNQKETHQRHAASSHHHHHH
B1: in data set [1], the “perhydrolase activity (PAA by indicator strip) in presence of additives” value is on record as at least 2000 ppm. Besides, the “Bleaching Start” value in data set [2] (1.0 mg/mL enzyme pH 6) is on record as 12th. Also, the “Tenacity @ max” value in data set [2] (1.0 mg/mL enzyme pH 6, 100 mM triacetin, 250 mM H2O2, up to 13 repeats) amounted to 1.2 gf/den.
